This is an account of results in patent US20080312140A1 (published 2008).

First the molecules themselves.
B1: C2-3 (peptide)
peptide: RQGSFG-NH2
modifications: bridge (positions not given here) via N(2-Aminoethyl)Gly; also: backbone cyclised via N-(aminoethyl)Gly building unit and dicarboxylic acid bridge (m=4), structure in drawing only
B2: C2-2 (peptide)
peptide: RQGSFG-NH2
modifications: bridge (positions not given here) via N(2-Aminoethyl)Gly; also: backbone cyclised via N-(aminoethyl)Gly building unit and dicarboxylic acid bridge (m=3), structure in drawing only
B3: C2-1 (peptide)
peptide: RQGSFG-NH2
modifications: bridge (positions not given here) via N(2-Aminoethyl)Gly; also: backbone cyclised via N-(aminoethyl)Gly building unit and dicarboxylic acid bridge (m=2), structure in drawing only

Starred links: 1 amine or outer side, 2 acyl side, 3 side chain; linkers in the order of their positions; H or OH if unused. No end group written: not given here. N(2-Aminoethyl)Gly = O=C(CN(CCN[*:3])[*:1])[*:2]

In this assay the target is HIV-1 envelope glycoprotein gp120 (HIV-1). Put plainly: cell-based or functional assay.
With B1, the “IC50 of infection inhibition (Cell Infection Inhibition Assay, CD4 expressing Hela P4 cells)” value was found to be 81 µM. With B2 the figure was 81 µM; with B3, 33 µM.
